# Test results reported in patent publication US12697404B2, “PSMA-targeting conjugate and uses thereof” (priority 2021, dated 2026).
# Read-outs that look alike come from different tables or passages of the source.
# What was measured:
# [1] = system: subcutaneous LNCaP tumors; assay: Comparative biodistribution study in xenograft-bearing mice; format: in vivo, athymic nude mice; settings: both labeled with 212Pb, one 10 μCi dose i.v., at 1 hour, 4 hours and 24 hours post-dose injection
# Method: A study was carried out in order to compare the biodistribution of PSMA-OM-00214, labeled with ^212Pb at a specific activity of 10 μCi per 10 ng of conjugate, in athymic nude mice bearing a human prostate cancer cell tumor with that of a conjugate, denoted hereinafter “DOTAM-PSMA-617”, also labeled with ^212Pb and differing from PSMA-OM-00214 in that it comprises only one PSMA ligand instead of two.
# Three batches of male athymic nude mice, 7-8 weeks old and weighting 27.90±2.6 g for the first batch, 27.90±2.5 g for the second batch and 29.50±2.5 g for the third batch, at study initiation, were injected subcutaneously, into the right flank, with 10^6 LNCaP cells in 100 μL of RPMI-1640 medium/Matrigel™ (v/v: 1/1). The tumors were let grow until they reached 200-300 mm^3.
# The mice were divided into a plurality of groups each comprising 3 to 14 mice.
# In any case, each mouse received intravenously either one 10 μCi dose of ^212Pb-PSMA-OM-00214 (10 μCi per 10 ng of conjugate, 100 μL injection volume) or one 10 μCi dose of ^212Pb-DOTAM-PSMA-617 (10 μCi per 10 ng of conjugate, 100 μL injection volume). […]
# The tubes were counted for two min. […] Standards consisting of 5 μL of the solutions injected to the mice were also counted and used for decay correction.
# (§1) The percent injected dose per gram, denoted % ID/g, was calculated for each organ collected (mean±standard deviation).
# [2] = ^212Pb-PSMA-OM-00214 biodistribution study in xenograft-bearing mice; format: in vivo, R2G2 mice; settings: male, R2G2, mouse, iv, 10 uCi, total radioactivity, labeled with 212Pb, 10 μCi per 10 ng of conjugate, one 10 μCi dose i.v.
# Method: (§2) A study was carried out in order to assess the biodistribution of PSMA-OM-00214, labeled with ^212Pb at a specific activity of 10 μCi per 10 ng of conjugate, in R2G2™ mice bearing a human prostate cancer cell tumor.
# (§3) 15 male R2G2™ mice, 7-8 weeks old and weighting 33.9±3.5 g at study initiation, were injected subcutaneously, into the right flank, with 10^6 LNCaP cells in 100 μL of RPMI-1640 medium/Matrigel™ (v/v: 1/1). The tumors were let grow until they reached 200-300 mm^3 (as determined by the formula: volume=0.5×length×width^2).
# (§4) Then animals were randomized based on tumor size and a group of 6 mice received intravenously (into a tail vein) one 10 μCi dose of ^212Pb-PSMA-OM-00214 (10 μCi per 10 ng of conjugate, 100 μL injection volume).
# (§5) The mice were sacrificed at 4 hour post-dose injection.
# (§6) Blood, bladder, reproductive organs, small intestine, colon with caecum, spleen, pancreas, kidneys, stomach, liver, lung, heart, brain, femoral bone, abdominal fat, skeletal muscle, tail (as injection site) and LNCaP tumor were collected from each sacrificed mouse, weighted and transferred to individual tubes for automatic gamma counter.
# (§7) The tubes were counted for two min. The background was automatically subtracted from the counts. A standard consisting of 5 μL of the solution injected to the mice was also counted for each group of mice and used for decay correction.
# as §1
# [3] = system: subcutaneous LNCaP tumors; assay: as above; format: in vivo, R2G2 mice; settings: labeled with 212Pb, one 10 μCi dose i.v., 4 hours post-injection
# Method: as §2, §3, §4, §5, §6, §7, §1
smiles,measurement,setting,value
NC(=O)CN1CCN(CC(=O)NCC2CCC(C(=O)NC(Cc3ccc4ccccc4c3)C(=O)NCCCCC(NC(=O)NC(CCC(=O)O)C(=O)O)C(=O)O)CC2)CCN(CC(N)=O)CCN(CC(=O)NCC2CCC(C(=O)NC(Cc3ccc4ccccc4c3)C(=O)NCCCCC(NC(=O)NC(CCC(=O)O)C(=O)O)C(=O)O)CC2)CC1 (centres unmarked) [PSMA-OM-00214],tumor uptake and retention compared with DOTAM-PSMA-617,[1],significantly higher
same,tissue uptake at 4 h,"[2]; LNCaP tumor, 4 hours post-injection, average, read-out: tumor uptake",> 20 %ID/g
same,tissue uptake at 4 h,"[2]; kidneys, 4 hours, read-out: kidney uptake",~10 %ID/g
same,tumor/kidney ratio,[3],satisfactory
same,uptake in all major non-tumor tissues,[3],very low uptake
